From patent US20110152345A1, “EBI3, DLX5, NPTX1 AND CDKN3 FOR TARGET GENES OF LUNG CANCER THERAPY AND DIAGNOSIS” (Oncotherapy Science, Inc., priority 2007, published 2011)

B1: cyclin-dependent kinase inhibitor 3 (CDKN3), endogenous in LC319 cells (enzyme)
chain: MKPPSSIQTSEFDSSDEEPIEDEQTPIHISWLSLSRVNCSQFLGLCALPGCKFKDVRRNVQKDTEELKSCGIQDIFVFCTRGELSKYRVPNLLDLYQQCGIITHHHPIADGGTPDIASCCEIMEELTTCLKNYRKTLIHCYGGLGRSCLVAACLLLYLSDTISPEQAIDSLRDLRGSGAIQTIKQYNYLHEFRDKLAAHLSSRDSQSRSVSR
notes: Endogenous protein in extracts of the human lung cancer cell line LC319; also called KAP; KAP1

Columns and labels:
[1] = molecular target: T1, eukaryotic translation elongation factor 1 delta (EF-1delta), endogenous (human, UniProt P29692 2-281); assay: co-immunoprecipitation with anti-CDKN3 monoclonal antibody from LC319 extracts, silver stain, MALDI-TOF-MS
T1 construct: Endogenous 31-kDa protein of LC319 cells
T1 sequence: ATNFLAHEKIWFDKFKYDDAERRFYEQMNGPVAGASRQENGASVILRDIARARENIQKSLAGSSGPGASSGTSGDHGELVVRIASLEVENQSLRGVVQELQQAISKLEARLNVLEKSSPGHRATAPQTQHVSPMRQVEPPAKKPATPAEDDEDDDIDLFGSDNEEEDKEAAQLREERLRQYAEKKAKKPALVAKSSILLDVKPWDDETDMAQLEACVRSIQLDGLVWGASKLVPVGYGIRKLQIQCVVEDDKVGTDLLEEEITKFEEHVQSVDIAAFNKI
Description: Cell extracts from lung-cancer cell line LC319 were pre-cleared by incubation at 4 degree Centigrade for 1 hour with 100 micro L of protein G-agarose beads in a final volume of 2 ml of immunoprecipitation buffer [0.5% NP-40, 50 mM Tris-HCl, 150 mM NaCl] in the presence of protease inhibitor. After centrifugation at 1000 rpm for 5 min at 4 degree Centigrade, the supernatant was incubated at 4 degree Centigrade with anti-CDKN3 monoclonal antibody or normal mouse IgG, for 2 hours. The beads were then collected by centrifugation at 5000 rpm for 2 min and washed six times with 1 ml of each immunoprecipitation buffer. The washed beads were resuspended in 50 micro L of Laemmli sample buffer and boiled for 5 min, and the proteins were separated by 5-10% SDS PAGE gels (BIO RAD). After electrophoresis, the gels were stained with silver. Protein bands specifically found in extracts immunoprecipitated with anti-CDKN3 monoclonal antibody were excised and served for matrix-assisted laser desorption/ionization-time of flight mass spectrometry (MALDI-TOF-MS) analysis (AXIMA-CFR plus, SHIMADZU BIOTECH).

COS-7 cells = assay: Autocrine assay: COS-7 cells incubated with recombinant NPTX1 protein, MTT; type: cell-based; details: NPTX1 at final concentration of 0.1 nM to 1 nM, compared with control
Text: FIG. 10. Presents the autocrine cellular growth effect of NPTX1. Part A depicts the inhibition of growth of lung cancer cells by siRNA against NPTX1. The upper panels of Part A depict the expression of NPTX1 in response to si-NPTX1s (si-1, -2) or control siRNAs (LUC or SCR) in A549 and SBC-5 cells, analyzed by RT-PCR analysis. The middle panels of Part A present images of colonies examined by colony-formation assays of the A549 and SBC-5 cells transfected with specific siRNAs for NPTX1 or control plasmids. The bottom panels of Part A present the viability of the A549 or SBC-5 cells evaluated by MTT assay in response to si-NPTX1s, -LUC, or -SCR. All assays were performed three times, and in triplicate wells. Part B presents growth-promoting effect of NPTX1 transiently overexpressed in COS-7 cells. Top panel, Transient expression of NPTX1 in COS-7 cells, detected by Western blot analysis. The bottom panels, Viability of the COS-7 cells evaluated by MTT (left) and colony formation assays (right). C, Left panel, Autocrine/paracrine effect of NPTX1 on the growth of mammalian cells. Cell viability counted by MTT assays (COS-7 cells treated with NPTX1 in final concentrations of 0, 0.1, or 1 nM) (right lanes indicated by PBS). […]

[2] = molecular target: T2, neuronal pentraxin receptor (NPTXR), endogenous on SBC-5 lung cancer cells (human, UniProt O95502 1-500); assay: immunocytochemistry of recipient SBC-5 cells incubated 3 hours with conditioned medium of NPTX1-transfected donor cells
T2 construct: Endogenous NPTXR of the human SCLC cell line SBC-5
T2 sequence: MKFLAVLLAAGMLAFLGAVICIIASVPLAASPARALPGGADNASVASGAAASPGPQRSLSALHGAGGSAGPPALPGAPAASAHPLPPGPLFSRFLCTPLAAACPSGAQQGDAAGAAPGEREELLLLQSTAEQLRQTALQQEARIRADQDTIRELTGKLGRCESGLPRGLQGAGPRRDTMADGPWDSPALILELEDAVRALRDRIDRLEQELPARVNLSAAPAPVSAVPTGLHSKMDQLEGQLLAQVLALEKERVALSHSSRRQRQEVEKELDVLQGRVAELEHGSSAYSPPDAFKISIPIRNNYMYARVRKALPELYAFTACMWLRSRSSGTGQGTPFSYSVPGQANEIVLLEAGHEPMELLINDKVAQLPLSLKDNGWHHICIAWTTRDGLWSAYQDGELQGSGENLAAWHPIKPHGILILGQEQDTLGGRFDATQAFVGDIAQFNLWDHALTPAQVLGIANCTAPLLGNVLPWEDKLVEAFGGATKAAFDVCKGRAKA
Description: FIG. 14: Presents internalization of NPTX1 after binding with NPTXR Part A, B, Recipient COS-7 cells (A) or SBC-5 cells (B) were incubated with conditioned medium from NPTX1-transfected (+) donor COS-7 cells or SBC-5 cells, respectively. c-myc-tagged NPTX1 was detected 3 hours after treatment of recipient cells with donor's conditioned medium. Green: NPTX1. Nuclei were visualized by DAPI. (a) Cells were stained for extracellular surface staining with anti-myc antibody for detecting NPTX1. (b) Cells were permialized by Triton X-100 and stained for NPTX1 (myc). (c) 3 hours treatment with PBS. […] 1 or 3 hours after treatment of recipient COS-7 cells with conditioned medium from donor NPTX1-transfected (+) COS-7 cells, internalized NPTX1 was detected by western blotting using anti-myc antibodies.
To determine the mechanism involved in the regulation of NPTX1/NPTXR signaling, the present inventors examined whether NPTX1/NPTXR could be internalized when cells were exposed to secreted NPTX1, through confocal microscopy observation of the subcellular distribution of the NPTX1 and NPTXR. […] The present Mentors detected binding of NPTX1 to the surface of these cells by immunocytochemistry (FIGS. 14A and 14B). […] Then, immunocytochemistry was done under membrane-permeabilizing conditions and we detected internalized exogenous NPTX1 (FIGS. 14A and 14B). […]

[3] = molecular target: B1; assay: co-immunoprecipitation with monoclonal anti-Flag antibody from LC319 cells
Text: The biological importance of the association of these two proteins and its potential as a therapeutic target for lung cancer was subsequently investigated. To determine the domain in EF-1delta that is required for interaction with CDKN3, each construct of EF-1delta with FLAG-HA-sequence at its N- and C-terminals were transfected into LC319 cells (EF-1delta72-160, EF-1delta161-281, EF-1delta1-160, EF-1delta72-281, and full-length EF-1delta1-281; FIG. 21B).

B1: binds [1].

B2: myc/His-tagged NPTX1 (pcDNA3.1-NPTX1-myc/His) (ligand)
chain: QDFGPTRFICTSVPVDADMCAASVAAGGAEELRSSVLQLRETVLQQKETILSQKETIRELTAKLGRCESQSTLDPGAGEARAGGGRKQPGSGKNTMGDLSRTPAAETLSQLGQTLQSLKTRLENLEQYSRLNSSSQTNSLKDLLQSKIDELERQVLSRVNTLEEGKGGPRNDTEERVKIETALTSLHQRISELEKGQKDNRPGDKFQLTFPLRTNYMYAKVKKSLPEMYAFTVCMWLKSSATPGVGTPFSYAVPGQANELVLIEWGNNPMEILINDKVAKLPFVINDGKWHHICVTWTTRDGVWEAYQDGTQGGSGENLAPYHPIKPQGVLVLGQEQDTLGGGFDATQAFVGELAHFNIWDRKLTPGEVYNLATCSTKALSGNVIAWAESHIEIYGGATKWTFEACRQIN
notes: also called c-myc-tagged NPTX1; exogenous NPTX1; not shown: myc-His tag of the pcDNA3.1 myc-His vector
With B2 the “COS-7 cell growth by MTT assays” value (COS-7 cells) was “enhancement of the cell growth” and the binding result [2] was “binds”.

B3: EF-1delta161-281 (FLAG-HA-tagged deletion construct) (other, not shown: small tags and cut ends)
chain: GSDNEEEDKEAAQLREERLRQYAEKKAKKPALVAKSSILLDVKPWDDETDMAQLEACVRSIQLDGLVWGASKLVPVGYGIRKLQIQCVVEDDKVGTDLLEEEITKFEEHVQSVDIAAFNKI
notes: Lacks the N-terminal 160 amino acids of EF-1delta; also called EF-1delta 161-281 construct
B3: no binding [3].
